The target in one experiment is T1, HDAC3 (Homo sapiens, UniProt O15379).
T1 construct: expressed in transfected cells; host or cells: 293T
Nature of the experiment: GST pull-down of sLZIP with HDAC3 in 293T cells. The experiment is classed as binding. As for the experimental part:
293T cells were obtained and washed with cold PBS. The cells were re-suspended in an IP lysis buffer [25 mM of Tris-HCl (pH 7.4), 150 mM of NaCl, 1 mM of EDTA, 1% NP-40 and 5% glycerol, and a protease inhibitor]. A suspension was centrifuged at 16,000×g for 20 minutes at 4° C. Supernatants were collected and incubated with 0.5 μg of appropriate antibodies and 25 μl of protein A/G-agarose or a GST Sepharose 4B bead for 24 hours at 4° C. A protein complex was centrifuged at 1,000×g with a cold IP lysis buffer for 1 minute and washed five times. The final pellet was re-suspended in 50 μl of an SDS-sample buffer containing 5% β-mercaptoethanol and heated for 10 minutes at 100° C. A protein sample was isolated in SDS-PAGE (8 to 10%) and transferred to nitrocellulose membranes. Co-precipitated proteins were detected according to western blotting using specific antibodies.
For this purpose, 293T cells were transiently transfected with PPARγ2 (0.5 μg), β-galactosidase (0.1 μg), FABP4-Luc reporter genes (0.2 μg) and sLZIP (0.1 μg). […] A promoter activity was measured according to luciferase analysis. […] After the transfection, the cells were stimulated with or without 10 nM of RZD, and a promoter activity was measured (FIG. 4B). […] GFP-sLZIP expression constructs were expressed in C3H10T1/2 cells, rabbit anti-HDAC3 antibodies and Texas Red-labeled anti-rabbit antibodies were used and analysis was performed under a fluorescence microscope. […] A protein complex was analyzed in SDS-PAGE, and anti-GST and anti-Flag antibodies were used for immunoblotting (FIG. 4E). *, P<0.05; **, P<0.01
For this purpose, 293T cells were transfected with GST-PPARγ2 and Flag-sLZIP and were treated or not treated with 10 nM of RZD for 24 hours. […] A protein complex was analyzed in SDS-PAGE, and immunoblotted with anti-GST and anti-Flag antibodies. […] The cell lysates were GST pull-down analyzed (FIG. 5C). […] The cell lysates were GST pull-down analyzed (FIG. 5D). […] A protein complex was analyzed in SDS-PAGE, and then immunoblotted with anti-NCoR1 and anti-Flag antibodies (FIG. 5E). […]

In another experiment the test system is MEF cells. Nature of the experiment: Osteoblast differentiation in MEF cells, alizarin red staining. The experiment is classed as cell-based. The conditions noted are these: differentiation medium for 8 days. As for the experimental part:
Primary human mesenchymal stem cells (MSCs), C3H10T1/2, 293T and MEF cells were cultured in a DMEM to which thermally inactivated 10% FBS and penicillin (100 U/mL)/streptomycin (100 μg/mL) were added. All cell types were cultured in a humidified incubator containing CO2 5% under a temperature condition of 37° C. In order to induce osteoblast differentiation, the medium was exchanged with a DMEM in which 50 μg/mL of ascorbic acid, 10 mM of β-glycerophosphate and 10% FBS were contained for 8 days. The differentiation medium was changed once every two days.
Therefore, in order to characterize a potential role of sLZIP in the transcriptional activity of Runx2 by inhibiting the transcriptional activity of PPARγ2, the transcriptional activity of Runx2 was examined. For this purpose, 293T cells were temporarily transfected with Runx2 (0.5 μg), β-galactosidase (0.1 μg), 6 copies of Runx2 response elements (0.2 μg) and sLZIP at different contents (0.1 μg to 0.5 μg) (FIG. 7A). PPARγ2 (0.5 μg), β-galactosidase, Runx2, 6 copies of Runx2 response elements and sLZIP (0.5 μg) were expressed in the 293T cells (FIG. 7B). 293T cells were temporarily transfected with HDAC3 (0.5 μg), Runx2, β-galactosidase, 6 copies of Runx2 response elements and sLZIP at different contents (0.25 and 0.5 μg) (FIG. 7C). A promoter activity was measured by luciferase analysis. […]

T1 sequence (O15379 whole entry, species assumed): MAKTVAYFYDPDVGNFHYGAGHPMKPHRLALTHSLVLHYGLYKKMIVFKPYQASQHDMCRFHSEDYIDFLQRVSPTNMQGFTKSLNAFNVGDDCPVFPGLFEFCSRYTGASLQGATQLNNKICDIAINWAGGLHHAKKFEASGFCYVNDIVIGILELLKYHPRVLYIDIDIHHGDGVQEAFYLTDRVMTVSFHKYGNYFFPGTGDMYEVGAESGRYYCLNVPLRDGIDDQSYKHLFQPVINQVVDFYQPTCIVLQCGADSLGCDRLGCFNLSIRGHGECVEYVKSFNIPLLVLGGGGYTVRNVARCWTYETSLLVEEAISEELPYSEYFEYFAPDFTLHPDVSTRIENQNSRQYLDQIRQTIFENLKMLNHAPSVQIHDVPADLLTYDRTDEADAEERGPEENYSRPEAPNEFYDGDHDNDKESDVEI

B1: sLZIP: human small leucine-zipper protein, isoform of LZIP, 354 amino acids, no transmembrane domain, GenBank FJ263669, SEQ ID NO: 1 (protein, listed as Homo sapiens)
chain: MELELDAGDQDLLAFLLEESGDLGTAPDEAVRAPLDWALPLSEVPSDWEVDDLLCSLLSPPASLNILSSSNPCLVHHDHTYSLPRETVSMDLESESCRKEGTQMTPQHMEELAEQEIARLVLTDEEKSLLEKEGLILPETLPLTKTEEQILKRVRRKIRNKRSAQESRRKKKVYVGGLESRVLKYTAQNMELQNKVQLLEEQNLSLLDQLRKLQAMVIEISNKTSSSSMYSSDTRGSLPAEHGVLSRQLRALPSEDPYQLELPALQSEVPKDSTHQWLDGSDCVLQAPGNTSCLLHYMPQAPSAEPPLEWPFPDLFSEPLCRGPILPLQANLTRKGGWLPTGSPSVILQDRYSG
Regarding B1, the “interaction with HDAC3” value was “remained as being interacted with sLZIP” with HDAC3 (10 nM RZD for 24 hours); “interacted with HDAC3” in the experiment with HDAC3 (GST-HDAC3 and Flag-sLZIP, 293T cells, GST pull-down). The “interaction with HDAC3 in a PPARγ2 corepressor complex” value in the experiment with HDAC3 (no RZD treated) is on record as “interacted with HDAC3”. Besides, the “osteoblast differentiation and bone nodule formation” value with MEF cells is “promoted osteoblast differentiation and bone nodule formation”.

The values are drawn from US10456446B2, “Use of human small leucine zipper protein in osteogenesis procedure” (Korea University Research and Business Foundation, priority 2013, dated 2019).
